Assay results published in patent US20230035659A1, “Compositions and Methods for TTR Gene Editing and Treating ATTR Amyloidosis Comprising a Corticosteroid or Use Thereof” (Intellia Therapeutics, Inc., priority 2019, published 2023).
Strand notation (5' to 3'): a small letter for the sugar, then the base; units joined by * are phosphorothioate-linked, units joined directly phosphodiester-linked; [ ] holds rarer units or linkages, { } end groups; capitals alone tell only the bases. m = 2'-O-methyl; r = 2'-OH (RNA)

B1: G000480: TTR sgRNA modified sequence, Human, SEQ ID NO: 87; guide sequence of CR003353 (nucleic acid)
guide: mA*mA*mA*rGrGrCrUrGrCrUrGrArUrGrArCrArCrCrUrGrUrUrUrUrArGrAmGmCmUmAmGmAmAmAmUmAmGmCrArArGrUrUrArArArArUrArArGrGrCrUrArGrUrCrCrGrUrUrArUrCrAmAmCmUmUmGmAmAmAmAmAmGmUmGmGmCmAmCmCmGmAmGmUmCmGmGmUmGmCmU*mU*mU*mU
B2: G000486: TTR sgRNA modified sequence, Human, SEQ ID NO: 93; guide sequence of CR003339 (nucleic acid)
guide: mA*mC*mA*rCrArArArUrArCrCrArGrUrCrCrArGrCrArGrUrUrUrUrArGrAmGmCmUmAmGmAmAmAmUmAmGmCrArArGrUrUrArArArArUrArArGrGrCrUrArGrUrCrCrGrUrUrArUrCrAmAmCmUmUmGmAmAmAmAmAmGmUmGmGmCmAmCmCmGmAmGmUmCmGmGmUmGmCmU*mU*mU*mU

Tested on: TTR on-target site and potential off-target sites
Test: Targeted amplicon sequencing of on-target and potential off-target sites in primary human hepatocytes treated with LNPs
Type: cell-based
Conditions: PHH; for highest concentration (of gRNA) at which the potential off-target sites were no longer detected: LNP 11 point dose response 0.001-46.55 nM gRNA; for indel rate observed at the on-target site / number of potential off-target sites identified by the oligo insertion assay at which indels were detected (low levels) / indels at the in silico predicted off-target sites: LNP with 100 ng Cas9 mRNA (SEQ ID NO: 1); for indel rate observed at the on-target site: near-saturating dose of LNP; for number of potential off-target sites identified by the oligo insertion assay at which indels were detected (low levels): near-saturating dose; for number of potential off-target sites identified by the oligo insertion assay at which indels were detected (low levels) / indels at the in silico predicted off-target sites / Indel Frequency, On-Target site: targeted amplicon sequencing; for on-target indel rate at the highest gRNA concentration without detected off-target sites: LNP, 0.57 nM (G000480) and 15.51 nM (G000486) gRNA
Protocol: The HEK293_Cas9 cells used in Example 5 for detecting potential off-targets constitutively overexpress Cas9, leading to a higher number of potential off-target “hits” as compared to a transient delivery paradigm in various cell types. […] Accordingly, potential off-target sites identified by an oligo insertion method as used in Example 5 may be validated using targeted sequencing of the identified potential off-target sites.
In one approach, primary hepatocytes are treated with LNPs comprising Cas9 mRNA and a sgRNA of interest (e.g., a sgRNA having potential off-target sites for evaluation). The primary hepatocytes are then lysed and primers flanking the potential off-target site(s) are used to generate an amplicon for NGS analysis. Identification of indels at a certain level may validate potential off-target site, whereas the lack of indels found at the potential off-target site may indicate a false positive in the HEK293_Cas9 cell assay.
Following the identification of potential off-target sites in […] via the oligo insertion assay, certain potential sites were further evaluated by targeted amplicon sequencing, e.g., as described in Example 6. In addition to the potential off-target sites identified by the oligo insertion strategy, additional potential off-target sites identified by in silico prediction were included in the analysis.
To this end, PHH were treated with LNPs comprising 100 ng of Cas9 mRNA (SEQ ID NO:1) and the gRNA of interest at 14.68 nM (in a 1:1 ratio by weight), as described in Example 4. The LNPs were prepared using the cross-flow procedure described above and purified and concentrated using PD-10 columns and Amicon centrifugal filter units, respectively. The LNPs were formulated with an N:P ratio of 6.0 and contained Lipid A, Cholesterol, DSPC, and PEG2k-DMG in a 50:38:9:2 molar ratio, respectively. Following LNP treatment, isolated genomic DNA was analyzed by NGS (e.g., as described in Examples 1 and 6) to determine whether indels could be detected at the potential off-target site, which would be indicative of a Cas9-mediated cleavage event. Tables 33 and 34 show the potential off-target sites that were evaluated for the gRNAs G000480 and G000486, respectively.
As shown in FIGS. 21A-B and 22A-B and Table 35 below, indels were detected at low levels for only two of the potential off-target sites identified by the oligo insertion assay for G000480, and only one for G000486. […] Further, indels were only detected at these sites using a near-saturating dose of LNP, as the indel rates observed at the on-target sites for G000480 and G000486 were ˜97% and ˜91%, respectively (See Table 35).
A dose response assay was then performed in order to determine the highest dose of LNP in which no off-targets were detected. PHH were treated with LNPs comprising either G000480 or G000486 as described in Example 4. The doses ranged across 11 points with respect to gRNA concentration (0.001 nM, 0.002 nM, 0.007 nM, 0.02 nM, 0.06 nM, 0.19 nM, 0.57 nM, 1.72 nM, 5.17 nM, 15.51 nM, and 46.55 nM).

[1] = LNP with 100 ng Cas9 mRNA and 14.68 nM gRNA

Row | Molecule | highest concentration (of gRNA) at which the potential off-target sites were no longer detected [nM] | indel rate observed at the on-target site [%] | number of potential off-target sites identified by the oligo insertion assay at which indels were detected (low levels) | indels at the in silico predicted off-target sites | Indel Frequency, Off-Target site INS-OT.2 (LNP with 100 ng Cas9 mRNA and 14.68 nM gRNA, G000480 site INS-OT.2 (chr2: 192658562-192658582)) [%] | Indel Frequency, Off-Target site INS-OT.4 (of G000480) (LNP with 100 ng Cas9 mRNA and 14.68 nM gRNA, G000480 site INS-OT.4 (chr20: 9216118-9216138)) [%] | Indel Frequency, On-Target site [1] [%] | on-target indel rate at the highest gRNA concentration without detected off-target sites [%] | Indel Frequency, Off-Target site INS-OT.4 (of G000486) (LNP with 100 ng Cas9 mRNA and 14.68 nM gRNA, G000486 site INS-OT.4 (chr5: 91397023-91397043)) [%]
1 | B1 | 0.57 | ~97 | two | No indels were detected | 1.43 | 0.97 | 97.33 | 84.60 | 
2 | B2 | 15.51 | ~91 | one | No indels were detected |  |  | 91.33 | 89.50 | 0.47
